The source of these data is FireProtDB (doi:10.1021/bi9912950).

Several values for one entry are separate records, joined by “and”; a condition that tells them apart may be missing. Equal entries are not always repeated.

For the data set the following is noted: Bos taurus, 25 °C, CD, Ammonium acetate 0.1 M, reversible: yes, whole UniProt chain shown.

B1: Oxytocin-neurophysin 1 wild type, P01175 (protein)
chain: MAGSSLACCLLGLLALTSACYIQNCPLGGKRAVLDLDVRTCLPCGPGGKGRCFGPSICCGDELGCFVGTAEALRCQEENYLPSPCQSGQKPCGSGGRCAAAGICCSPDGCHEDPACDPEAAFSQH
For B1, the denaturant m value reads like this: (pH 6, GdnHCl) 1.6 kcal/mol/M and 1.1 kcal/mol/M; (pH 8, GdnHCl) 1.5 kcal/mol/M and 1.1 kcal/mol/M; (pH 8, Urea) 0.7 kcal/mol/M and 0.4 kcal/mol/M; (pH 10, GdnHCl) 0.9 kcal/mol/M and 1 kcal/mol/M. Besides, the unfolding free energy is 6.8 kcal/mol and 3.1 kcal/mol (pH 6, GdnHCl); 4.9 kcal/mol and 3 kcal/mol (pH 8, GdnHCl); 4.4 kcal/mol and 2.4 kcal/mol (pH 8, Urea); 2.7 kcal/mol and 2.6 kcal/mol (pH 10, GdnHCl).
